First the molecules themselves.
B1: Hammerhead Ribozyme (parent)
chain: ACCGGAUGUGCUUUCCGGUCUGAUGAGUCCGUGAGGACGAAACAG

Variants of B1 are the subject of the series. Description: self-cleavage, relative activity (ratio to wild type); higher = more cleavage; co-transcriptional.
ACCGGAUGUGCUUUCCGGGCGGAUGAGUCCGUGAGGACGAAACAG: the self-cleavage came to 0.328.

Take ACCGGAUGUGCUUUCCGGUCUGAUGAGUCUGUGAGGACCAAACAG: the self-cleavage amounted to 0.319.

In the case of ACCGGAUGUCCUUUCCGGACUGAUGAGUCCGUGAGGACGAAACAG, the self-cleavage was determined as 0.317.

Consider ACCGGAUGUGCUUUCCGGUCUGAUGAGUCCGUGAGGUGGAAACAG, for which the self-cleavage worked out at 0.384.

Turning to ACCGGAUUUACUUUCCGGUCUGAUGAGUCCGUGAGGACGAAACAG, the self-cleavage worked out at 1.47.

Consider ACCGGAUGUACUUUCCGCUCUGAUGAGUCCGUGAGGACGAAACAG, for which the self-cleavage stood at 0.615.

ACCGGGUGUGCUUUCCUGUCUGAUGAGUCCGUGAGGACGAAACAG: the self-cleavage was determined as 0.393.

With ACCGGAUGUGCUUUCUGGUCUGGUGAGUCCGUGAGGACGAAACAG, the self-cleavage turned out to be 0.423.

Take ACCCGAUGUGCUUUCCGGUCUGAUGAGUCCGUGAGGACUAAACAG: the self-cleavage is 0.293.

For ACCGGAUGUGCUAUCCGGUCUGAUGAGUCCGUGAGGACGAAACAA, the self-cleavage was 0.883.

On to ACCGGAUGUGCUUUCCGGUCUUAUGAAUCCGUGAGGACGAAACAG, for which the self-cleavage is 0.305.

With ACCGGUUGUGCUUUCCGGUCUAAUGAGUCCGUGAGGACGAAACAG, the self-cleavage came to 0.289.

Take ACCGGAUGUGCUUUCUGGUCUUAUGAGUCCGUGAGGACGAAACAG: the self-cleavage worked out at 0.327.

As for ACCGGGUGUGCUUUCCGGUCUGAUGAGUCCGUGAGGACGAAACCG, the self-cleavage was 0.523.

For the variant ACCGGUUGUGCUUUCCCGUCUGAUGAGUCCGUGAGGACGAAACAG, the self-cleavage came to 0.354.

Regarding ACCGGAUUUGCUCUCCGGUCUGAUGAGUCCGUGAGGACGAAACAG, the self-cleavage was 1.34.

With ACCAUAUGUGCUUUCCGGUCUGAUGAGUCCGUGAGGACGAAACAG, the self-cleavage worked out at 0.398.

For the variant AACGGAUGUGCUUUCCGGUCUGAUGCGUCCGUGAGGACGAAACAG, the self-cleavage was determined as 0.328.

Turning to ACCGGAUGUGCUUUCCGGUUUGAUUAGUCCGUGAGGACGAAACAG, the self-cleavage was found to be 0.328.

For ACCGGAUGUGGUAUCCGGUCUGAUGAGUCCGUGAGGACGAAACAG, the self-cleavage came out at 1.21.

Regarding ACCGGAUGUGCUUUCCGCUCUGAUGAGUCCGUGAGGACGAAAAAG, the self-cleavage came out at 0.327.

In the case of ACCGGAUGUCCUUUCCGGUCUGAUGAGUCCGUGAUGACGAAACAG, the self-cleavage came to 0.818.

Take ACCAGAUGUGCUUUCCGGUCUGAUGAGUCCGUGAGGACGAAAAAG: the self-cleavage was 0.313.

In the case of ACCGGAUGUGCUUUCAGGUCUGAUGAGUCUGUGAGGACGAAACAG, the self-cleavage turned out to be 1.32.

Consider ACCGGAUGUGCUUUCCGGUCUGAUGAGGCCGUGAGGACGAAACAG, for which the self-cleavage was 0.873.

As for ACCUGAUGUGCUUUCCGAUCUGAUGAGUCCGUGAGGACGAAACAG, the self-cleavage was determined as 0.297.

Consider ACCGGAUGUGCGUUUCGGUCUGAUGAGUCCGUGAGGACGAAACAG, for which the self-cleavage was found to be 0.823.

As to ACCGGAUGUGCUUUUCGGUCUGAUGAGUCCGUGAGGACGGAACAG, the self-cleavage is 0.269.

In the case of ACCGGAUGUGCUUUCCGUUCUGAUGAGUCCGUGAGGACGAAUCAG, the self-cleavage turned out to be 0.339.

As to ACCUGAUGUACUUUCCGGUCUGAUGAGUCCGUGAGGACGAAACAG, the self-cleavage amounted to 0.588.

As to ACCGGAUGUGCUUUCCGGUGCGAUGAGUCCGUGAGGACGAAACAG, the self-cleavage turned out to be 0.305.

Regarding ACCGGAUGUGCUUUCCGGACUGCUGAGUCCGUGAGGACGAAACAG, the self-cleavage came to 0.346.

For the variant ACCGGAUGUGCUUUCCGGUCUGAUGAGACCGUGAAGACGAAACAG, the self-cleavage came to 0.405.

For ACCGGAAGUGCUUUCCGGUCUGAUGAGUCCGUUAGGACGAAACAG, the self-cleavage was 1.14.

As for ACCGGAUGUGCUUUCCGGUCUGAUGAGUCCGUGAAGUCGAAACAG, the self-cleavage turned out to be 0.414.

On to ACCGGGUGUGCUUUUCGGUCUGAUGAGUCCGUGAGGACGAAACAG, for which the self-cleavage was found to be 0.811.

For ACCGGAUGUGCUUUUCGGUCUGAUGAGUGCGUGAGGACGAAACAG, the self-cleavage amounted to 0.802.

For ACCGGAUGUGCUUUUCGGUCUGAUGAGUCCGUGAGGACGAAACAU, the self-cleavage is 0.822.

ACCGGAUGUGCUUUCCGGUCUGAUGAGUGCGUGAGGACGAAGCAG: the self-cleavage amounted to 0.269.

Take ACCGGAUGUGCUUUCCGGUCUGAUGUGUCCCUGAGGACGAAACAG: the self-cleavage was 0.633.

For ACCGGAUGUGCUUUCCGGUCUGUUGAUUCCGUGAGGACGAAACAG, the self-cleavage is 0.279.

Consider ACCGGAUGUGCUUGCCGGUCUGAUGAGUCCGUGAGGACGACACAG, for which the self-cleavage is 0.34.

On to ACCAGAUGUUCUUUCCGGUCUGAUGAGUCCGUGAGGACGAAACAG, for which the self-cleavage is 0.734.

ACCGGAUGUGCUUUCCGGUCAGAUGAGUCCGUGAGGACGAACCAG: the self-cleavage turned out to be 0.382.

ACCGGAUGUGCUUUCCGGUCUGAUGAGUCAGUGAGGUCGAAACAG: the self-cleavage turned out to be 0.42.

Regarding ACCGUAUGUGCUUUCCGGUCUUAUGAGUCCGUGAGGACGAAACAG, the self-cleavage is 0.304.

Take ACCGGAUCUGCUUUCCGGUAUGAUGAGUCCGUGAGGACGAAACAG: the self-cleavage turned out to be 0.461.

For the variant ACCGGAUGUGCUUUUCGGUCCGAUGAGUCCGUGAGGACGAAACAG, the self-cleavage turned out to be 0.556.

As to ACCGGAUGUGCUUUCCGGACUGAUGAGUCCGUGAUGACGAAACAG, the self-cleavage was found to be 0.373.

For the variant ACCGGAUGUGCUUUCCGGUCUGCUGAGUCCGUGAAGACGAAACAG, the self-cleavage was found to be 0.397.

ACUGGCUGUGCUUUCCGGUCUGAUGAGUCCGUGAGGACGAAACAG: the self-cleavage worked out at 0.437.

With ACCGUAUGAGCUUUCCGGUCUGAUGAGUCCGUGAGGACGAAACAG, the self-cleavage worked out at 0.723.

Turning to ACCGGAUGUGCUUUCCGGUCUGAUUAGUCCGUGAGGACGCAACAG, the self-cleavage was 0.272.

As to GCCGGAUGUGGUUUCCGGUCUGAUGAGUCCGUGAGGACGAAACAG, the self-cleavage worked out at 2.12.

Turning to ACCAGAUGUGCUUUCCGGUCUGAUGACUCCGUGAGGACGAAACAG, the self-cleavage turned out to be 0.297.

With ACCGGAUGUCCUUUCCGGUCUGAUGAGUACGUGAGGACGAAACAG, the self-cleavage was 0.678.

On to ACCUGAUGUGCUUUCCGGUCUGAUGAGUCCGUGAGGACGAACCAG, for which the self-cleavage was 0.265.

The values above are taken from the RNAGym collection of RNA variant scans (doi:10.7554/elife.80360).
